Reference: patent US11001824

T1: denatured bovine pancreatic Ribonuclease B, P61823
T1 chain: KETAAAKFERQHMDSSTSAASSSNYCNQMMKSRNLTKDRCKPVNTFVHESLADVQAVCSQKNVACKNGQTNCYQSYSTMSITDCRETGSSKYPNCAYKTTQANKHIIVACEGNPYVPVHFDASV


Target: T1, denatured bovine pancreatic …

Protein	Deglycosylation Activity on RNase B (gel shift assay) [%]	N-glycanase activity assay (gel shift)
wild-type PNGase F from Flavobacterium meningosepticum (protein) GIPAPADNTVNIKTFDKVKNAFGDGLSQSAEGTFTFPADVTAVKTIKMFIKNECPNKTCDEWDRYANVYVKNKTTGEWYEIGRFITPYWVGTEKLPRGLEIDVTDFKSLLSGNTELKIYTETWLAKGREYSVDFDIVYGTPDYKYSAVVPVVQYNKSSIDGVPYGKAHTLALKKNIQLPTNTEKAYLRTTISGWGHAKPYDAGSRGCAEWCFRTHTIAINNSNTFQHQLGALGCSANPINNQSPGNWTPDRAGWCPGMAVPTRIDVLNNSLIGSTFSYEYKFQNWTNNGTNGDAFYAISSFVIAKSNTPISAPVVTNLDPHHHHHH	100	PNGase F completely de-glycosylates 1 µg of RNase B under the assay conditions described
PNGase F D60A single point mutant (protein) GIPAPADNTVNIKTFDKVKNAFGDGLSQSAEGTFTFPADVTAVKTIKMFIKNECPNKTCDEWARYANVYVKNKTTGEWYEIGRFITPYWVGTEKLPRGLEIDVTDFKSLLSGNTELKIYTETWLAKGREYSVDFDIVYGTPDYKYSAVVPVVQYNKSSIDGVPYGKAHTLALKKNIQLPTNTEKAYLRTTISGWGHAKPYDAGSRGCAEWCFRTHTIAINNSNTFQHQLGALGCSANPINNQSPGNWTPDRAGWCPGMAVPTRIDVLNNSLIGSTFSYEYKFQNWTNNGTNGDAFYAISSFVIAKSNTPISAPVVTNLDPHHHHHH	13.4	–
